IntAct's records for PubMed 25461530

B1: Dipeptidyl peptidase 4 (Homo sapiens), P27487 (parent)
chain: MKTPWKVLLGLLGAAALVTIITVPVVLLNKGTDDATADSRKTYTLTDYLKNTYRLKLYSLRWISDHEYLYKQENNILVFNAEYGNSSVFLENSTFDEFGHSINDYSISPDGQFILLEYNYVKQWRHSYTASYDIYDLNKRQLITEERIPNNTQWVTWSPVGHKLAYVWNNDIYVKIEPNLPSYRITWTGKEDIIYNGITDWVYEEEVFSAYSALWWSPNGTFLAYAQFNDTEVPLIEYSFYSDESLQYPKTVRVPYPKAGAVNPTVKFFVVNTDSLSSVTNATSIQITAPASMLIGDHYLCDVTWATQERISLQWLRRIQNYSVMDICDYDESSGRWNCLVARQHIEMSTTGWVGRFRPSEPHFTLDGNSFYKIISNEEGYRHICYFQIDKKDCTFITKGTWEVIGIEALTSDYLYYISNEYKGMPGGRNLYKIQLSDYTKVTCLSCELNPERCQYYSVSFSKEAKYYQLRCSGPGLPLYTLHSSVNDKGLRVLEDNSALDKMLQNVQMPSKKLDFIILNETKFWYQMILPPHFDKSKKYPLLLDVYAGPCSQKADTVFRLNWATYLASTENIIVASFDGRGSGYQGDKIMHAINRRLGTFEVEDQIEAARQFSKMGFVDNKRIAIWGWSYGGYVTSMVLGSGSGVFKCGIAVAPVSRWEYYDSVYTERYMGLPTPEDNLDHYRNSTVMSRAENFKQVEYLLIHGTADDNVHFQQSAQISKALVDVGVDFQAMWYTDEDHGIASSTAHQHIYTHMSHFIKQCFSLP

Variants of: B1
Conditions: with spike_mers1 S

Q: K267A was tested. Which “effect of a mutation on the interaction” value did it give?
A: disrupting interaction strength

Q: For K267E, which “effect of a mutation on the interaction” value is on record?
A: disrupting interaction strength

Q: L294A;I295A was tested. Which “effect of a mutation on the interaction” value did it give?
A: disrupting interaction strength

Q: L294D;I295D was tested. Which “effect of a mutation on the interaction” value did it give?
A: disrupting interaction strength

Q: How did the “effect of a mutation on the interaction” value turn out when R317A was run?
A: decreasing interaction strength

Q: With R336A as the variant, how does the “effect of a mutation on the interaction” value read?
A: decreasing interaction strength

Q: With Q344A as the variant, how does the “effect of a mutation on the interaction” value read?
A: with no effect
